Measurements: article PMC11507941 (bioRxiv, 2024)
Numbering of substitutions follows the chain as printed. Names may count otherwise. Like-named read-outs stand apart in the source and are kept apart here.

How the values were obtained:
Test in all cases: fluorescence polarisation
WT SufS [1] = molecular target: T1, WT SufS (E. coli, UniProt P77444 1-406, PLP cofactor attached to K226 as an internal aldimine)
T1 sequence: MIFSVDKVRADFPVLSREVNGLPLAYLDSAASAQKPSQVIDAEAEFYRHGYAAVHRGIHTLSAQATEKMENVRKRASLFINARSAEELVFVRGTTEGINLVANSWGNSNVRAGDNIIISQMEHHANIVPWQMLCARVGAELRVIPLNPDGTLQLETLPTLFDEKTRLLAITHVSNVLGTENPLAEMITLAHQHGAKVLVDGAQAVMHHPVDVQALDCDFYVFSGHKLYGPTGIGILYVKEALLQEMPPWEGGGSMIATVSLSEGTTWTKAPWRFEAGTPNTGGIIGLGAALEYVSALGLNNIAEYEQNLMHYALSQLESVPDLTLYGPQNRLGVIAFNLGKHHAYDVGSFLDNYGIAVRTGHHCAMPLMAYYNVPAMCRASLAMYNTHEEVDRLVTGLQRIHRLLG

R56A SufS [2] = molecular target: T2, R56A SufS (E. coli, UniProt P77444 1-406, R56A, PLP cofactor (occupancy greater than 90%))
T2 sequence: T1 sequence with R56A

R56K SufS [3] = molecular target: T3, R56K SufS (E. coli, UniProt P77444 1-406, R56K, PLP cofactor (occupancy greater than 90%))
T3 sequence: T1 sequence with R56K

R359A SufS [4] = molecular target: T4, R359A SufS (E. coli, UniProt P77444 1-406, R359A, PLP cofactor (occupancy greater than 90%))
T4 sequence: T1 sequence with R359A

R359K SufS [5] = molecular target: T5, R359K SufS (E. coli, UniProt P77444 1-406, R359K, PLP cofactor (occupancy greater than 90%))
T5 sequence: T1 sequence with R359K

WT SufS [6] = molecular target: T1, WT SufS; remark: listed apart in the source
R56A SufS [7] = molecular target: T2, R56A SufS; remark: listed apart in the source
R56K SufS [8] = molecular target: T3, R56K SufS; remark: listed apart in the source
R359A SufS [9] = molecular target: T4, R359A SufS; remark: listed apart in the source
R359K SufS [10] = molecular target: T5, R359K SufS; remark: listed apart in the source

B1: BODIPY-FL labeled C51A/E107C SufE (natural protein, E. coli, UniProt P76194 1-138, looked up)
chain: MALLPDKEKLLRNFLRCANWEEKYLYIIELGQRLPELRDEDRSPQNSIQGAQSQVWIVMRQNAQGIIELQGDSDAAIVKGLIAVVFILYDQMTPQDIVNFDVRPWFCKMALTQHLTPSRSQGLEAMIRAIRAKAAALS
modifications: BODIPY FL maleimide label (labelling efficiency 60-80%)
- Kd (WT SufS [1]): 2500 ± 300 nM
- Kd (R56A SufS [2]): 5800 ± 900 nM
- Kd (R56K SufS [3]): 8500 ± 1100 nM
- Kd (R359A SufS [4]): 900 ± 200 nM
- Kd (R359K SufS [5]): 4600 ± 500 nM
- Kd (WT SufS [6]): 200 ± 100 nM
- Kd (R56A SufS [7]): 4000 ± 400 nM
- Kd (R56K SufS [8]): 2800 ± 300 nM
- Kd (R359A SufS [9]): 300 ± 100 nM
- Kd (R359K SufS [10]): 2800 ± 300 nM
